Patent publication US20170298119A1

Biological target: recombinant FcRn protein (Homo sapiens (Human)) (UniProt P55899)
Assay: BLI (Octet): antibody on anti-CH1 biosensors, recombinant FcRn at pH 6.0; fold change against wild type Motavizumab (p-1342)

A Kd (fold increase) of 9.3 fold, a koff (fold decrease) of 3.7 fold and a kon (fold increase) of 2.5 fold were found for LS (antibody) in this work.
